Molecular target: T1, AlkG (rubredoxin-2) (Pseudomonas putida, UniProt Q9WWW4)
T1 chain: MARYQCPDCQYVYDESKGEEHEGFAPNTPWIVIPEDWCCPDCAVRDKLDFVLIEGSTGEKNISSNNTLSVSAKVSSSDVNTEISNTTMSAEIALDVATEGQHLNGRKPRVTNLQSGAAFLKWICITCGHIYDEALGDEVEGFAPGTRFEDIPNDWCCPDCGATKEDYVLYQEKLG
Experiment: electrochemical activity titration on AlkG-immobilized screen-printed carbon electrode (one-site and two-site binding model fits)

B1: AlkB (protein)
chain: MNGKSSVLDSAPEYVDKKKYFWILSTFWPATPMIGIWLANETGWGIFYGLVLAVWYGVLPLLDAMFGEDFNNPPEEVVEKLEKERYYRVLTYLTVPMHYAALIVSAWWVGTQSMSWFEIVALALSLGIVNGLALNTGHELGHKKEAFDRWMAKIVLAVVGYGHFFIEHNKGHHRDVATPMDPATSRMGENIYKFSTREIPGAFRRAWGLEEQRLSRRGQSVWSFDNEILQPMVITVVLYTLLLAFFGPKMLVFLPIQMAFGWWQLTSANYIEHYGLLREKMADGRYEHQKPHHSWNSNHIVSNLVLFHLQRHSDHHAHPTRSYQSLRDFPGLPALPTGYPGAFLMAMIPQWFRSVMDPKVVNWANGDLSKIQIEDSMRAEYIKKFTHNVGADDKRGATAVAS
For B1, the Kd was 268 µM.
